Experimental findings from the supplement of paper PMC10598134 are described below.

This series in a line: collision cross section of modified peptide (TIMS, N2, iRT-aligned); higher = larger / more extended gas-phase ion. The method in brief: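 Synthetic peptide pools (~100 fmol/µL in 2% acetonitrile/0.1% formic acid, iRT standard spiked 1:40) were separated on a 120-min nanoflow C18 gradient at 60 °C. They were analysed on a timsTOF Pro/HT (dda-PASEF, nitrogen, ~2.4 mbar) and identified with MaxQuant. 1/K0 was calibrated with three reference ions and aligned run-wise to the median iRT peptide deviation. Collision cross section came from the Mason-Schamp equation, averaging 1–3 technical replicates of the most abundant feature per charge state.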

Setting [1] is: charge state: 2, modification: Citrullination (R).
[2] abbreviates: charge state: 3, modification: Citrullination (R).
Setting [3] is: charge state: 3, modification: Methyl (R).
The mark [4] stands for this setting: charge state: 2, modification: Nitro (Y).
Setting [5] is: charge state: 2, modification: Phospho (Y).
Where [6] appears, read: charge state: 2, modification: Acetyl (K).
[7] abbreviates: charge state: 3, modification: Acetyl (K).
Setting [8] is: charge state: 2, modification: Butyryl.
[9] abbreviates: charge state: 3, modification: GlyGly (K).
The mark [10] stands for this setting: charge state: 2, modification: Methyl (K).
Where [11] appears, read: charge state: 3, modification: Methyl (K).
Setting [12] is: charge state: 2, modification: Succinyl.
The mark [13] stands for this setting: charge state: 3, modification: Nitro (Y).
Setting [14] is: charge state: 3, modification: Phospho (Y).
[15] abbreviates: charge state: 2, modification: HexNAc (ST).
Where [16] appears, read: charge state: 3, modification: Dimethyl (K).
Where [17] appears, read: charge state: 2, modification: Glutarylation.
Setting [18] is: charge state: 2, modification: GlyGly (K).
The mark [19] stands for this setting: charge state: 3, modification: Trimethyl (K).
Where [20] appears, read: charge state: 3, modification: HexNAc (ST).

± gives the standard deviation.

As for “GVPRGVHLGSQGLQR [_GVPR(Citrullination (R))GVHLGSQGLQR_]”, the collision cross section is given as 439.96 Å² under setting [1] and 482.18 ± 0.41 Å² under setting [2].
“GVPRGVHLGSQGLQR [_GVPR(Methyl (R))GVHLGSQGLQR_]” returned a collision cross section under setting [3] of 492.74 ± 2.1 Å².
With GVQYLNEIK [_GVQY(Nitro (Y))LNEIK_], the collision cross section under setting [4] is 353.34 ± 0.19 Å².
GVQYLNEIK [_GVQY(Phospho (Y))LNEIK_]: the collision cross section under setting [5] was 357.38 ± 0.065 Å².
Consider “GYDVIAQAQSGTGK [_GY(Nitro (Y))DVIAQAQSGTGK_]”, for which the collision cross section under setting [4] came out at 387.17 ± 0.17 Å².
“GYDVIAQAQSGTGK [_GY(Phospho (Y))DVIAQAQSGTGK_]” had a collision cross section under setting [5] of 388.75 ± 0.77 Å².
For the sequence GYGVIFANGNR [_GY(Nitro (Y))GVIFANGNR_], the collision cross section under setting [4] came to 360.58 ± 1.2 Å².
Sequence “GYGVIFANGNR [_GY(Phospho (Y))GVIFANGNR_]” returned a collision cross section under setting [5] of 364.42 ± 0.064 Å².
Under setting [4], “GYLGPEQLPDCLK [_GY(Nitro (Y))LGPEQLPDCLK_]” gave a collision cross section of 396.71 ± 0.18 Å².
The sequence “GYLGPEQLPDCLK [_GY(Phospho (Y))LGPEQLPDCLK_]” returned a collision cross section under setting [5] of 400.34 ± 0.08 Å².
Turning to “HELQANCYEEVKDR [_HELQANCYEEVK(Acetyl (K))DR_]”, the collision cross section reads like this: under setting [6], 446.57 Å²; under setting [7], 495.42 ± 1.4 Å².
“HELQANCYEEVKDR [_HELQANCYEEVK(Biotin)DR_]” displayed a collision cross section (charge state: 3, modification: Biotin) of 512.53 ± 1.6 Å².
Take “HELQANCYEEVKDR [_HELQANCYEEVK(Butyryl)DR_]”: the collision cross section was determined as 452.47 ± 0.51 Å² under setting [8] and 502.99 ± 3.8 Å² (charge state: 3, modification: Butyryl).
Sequence “HELQANCYEEVKDR [_HELQANCYEEVK(Formyl)DR_]” gave a collision cross section (charge state: 3, modification: Formyl) of 490.46 Å².
On to “HELQANCYEEVKDR [_HELQANCYEEVK(Gluratylation)DR_]”, for which, under “charge state: 3, modification: Glutarylation”, the collision cross section came out at 487.76 ± 1.7 Å².
Under setting [9], “HELQANCYEEVKDR [_HELQANCYEEVK(GlyGly (K))DR_]” registered a collision cross section of 529.53 ± 1.6 Å².
As for “HELQANCYEEVKDR [_HELQANCYEEVK(Malonyl)DR_]”, the collision cross section (charge state: 3, modification: Malonyl) is 477.83 ± 2.4 Å².
On to “HELQANCYEEVKDR [_HELQANCYEEVK(Methyl (K))DR_]”, for which the collision cross section came to 444.71 Å² under setting [10] and 527.11 ± 0.72 Å² under setting [11].
Regarding “HELQANCYEEVKDR [_HELQANCYEEVK(Succinyl)DR_]”, the collision cross section under setting [12] came to 444.39 Å² and the collision cross section (charge state: 3, modification: Succinyl) worked out at 483.15 ± 3.9 Å².
In the case of “HELQANCYEEVKDR [_HELQANCYEEVK(hydroxyisobutyryl)DR_]”, the collision cross section (charge state: 3, modification: hydroxyisobutyryl) turned out to be 504.98 ± 2.9 Å².
Under setting [2], “HFGPVPPSQGRGR [_HFGPVPPSQGR(Citrullination (R))GR_]” showed a collision cross section of 445.8 Å².
“HFGPVPPSQGRGR [_HFGPVPPSQGR(Methyl (R))GR_]”: the collision cross section under setting [3] stood at 491.26 ± 0.38 Å².
Under setting [2], “HGGSGGRGVSVSSAR [_HGGSGGR(Citrullination (R))GVSVSSAR_]” displayed a collision cross section of 485.51 ± 3.7 Å².
Take “HGGSGGRGVSVSSAR [_HGGSGGR(Methyl (R))GVSVSSAR_]”: the collision cross section under setting [3] stood at 477.29 ± 1.5 Å².
With HGVYNPNK [_HGVY(Nitro (Y))NPNK_], under setting [4], the collision cross section worked out at 338.11 ± 3.3 Å².
In the case of HGVYNPNK [_HGVY(Phospho (Y))NPNK_], the collision cross section under setting [5] worked out at 346.37 ± 0.75 Å².
As for “HHAAYVNNLNVTEEK [_HHAAY(Nitro (Y))VNNLNVTEEK_]”, the collision cross section came to 438.46 Å² under setting [4] and 499.02 ± 3.6 Å² under setting [13].
“HHAAYVNNLNVTEEK [_HHAAY(Phospho (Y))VNNLNVTEEK_]” yielded a collision cross section under setting [5] of 438.56 Å² and a collision cross section under setting [14] of 495.42 ± 1.2 Å².
Sequence “HHTLRQAPQPQSSLQR [_HHTLR(Citrullination (R))QAPQPQSSLQR_]” came in with a collision cross section under setting [2] of 502.84 ± 0.41 Å².
With HIGFVYHPTK [_HIGFVY(Nitro (Y))HPTK_], the collision cross section is, setting by setting: under setting [4], 375.77 ± 0.17 Å²; under setting [13], 448.27 ± 1.8 Å².
For the sequence HIGFVYHPTK [_HIGFVY(Phospho (Y))HPTK_], the collision cross section reads like this: under setting [5], 384.4 ± 0.77 Å²; under setting [14], 458.98 ± 1.8 Å².
“HLRGHGPQPPLR [_HLR(Citrullination (R))GHGPQPPLR_]” displayed a collision cross section under setting [1] of 393.67 ± 4.3 Å² and a collision cross section under setting [2] of 482.78 ± 1.8 Å².
Under setting [3], “HLRGHGPQPPLR [_HLR(Methyl (R))GHGPQPPLR_]” came in with a collision cross section of 492.6 ± 2.1 Å².
With “HSPTLPEPGGLRLELPLSR [_HSPTLPEPGGLR(Citrullination (R))LELPLSR_]”, the collision cross section under setting [2] amounted to 513.82 ± 1.9 Å².
In turn, “HTLLRAPAPELLPANVAGR [_HTLLR(Citrullination (R))APAPELLPANVAGR_]” returned a collision cross section under setting [2] of 517.22 ± 8.9 Å².
For the sequence “HTLLRAPAPELLPANVAGR [_HTLLR(Methyl (R))APAPELLPANVAGR_]”, the collision cross section under setting [3] is listed as 530.63 ± 1.2 Å².
Take HVSPVTPPR [_HVSPVT(HexNAc (ST))PPR_]: the collision cross section under setting [15] is recorded as 366.95 ± 0.8 Å².
With “IDLPAENSNSETIIITGKR [_IDLPAENSNSETIIITGK(Acetyl (K))R_]”, the collision cross section under setting [7] is listed as 569.63 Å².
Turning to “IDLPAENSNSETIIITGKR [_IDLPAENSNSETIIITGK(Dimethyl (K))R_]”, the collision cross section under setting [16] is reported as 568.21 ± 0.55 Å².
As to “IDLPAENSNSETIIITGKR [_IDLPAENSNSETIIITGK(Gluratylation)R_]”, the collision cross section under setting [17] was 499.21 ± 1.9 Å².
Take “IDLPAENSNSETIIITGKR [_IDLPAENSNSETIIITGK(GlyGly (K))R_]”: the collision cross section by setting is: under setting [18], 493.9 ± 1.8 Å²; under setting [9], 582.79 ± 0.38 Å².
Take “IDLPAENSNSETIIITGKR [_IDLPAENSNSETIIITGK(Methyl (K))R_]”: the collision cross section under setting [11] worked out at 568.48 ± 0.62 Å².
Under setting [12], “IDLPAENSNSETIIITGKR [_IDLPAENSNSETIIITGK(Succinyl)R_]” yielded a collision cross section of 492.62 ± 0.3 Å².
Take “IDLPAENSNSETIIITGKR [_IDLPAENSNSETIIITGK(Trimethyl (K))R_]”: under setting [19], the collision cross section was 576.62 Å².
“IEDEQALGSQLQK [_IEDEQALGS(HexNAc (ST))QLQK_]”: the collision cross section turned out to be 424.7 ± 0.62 Å² under setting [15] and 499.3 ± 0.96 Å² under setting [20].
As for “IFDSEEILAGYK [_IFDSEEILAGY(Nitro (Y))K_]”, the collision cross section under setting [4] is 395.88 ± 0.18 Å².
Take IGAEVYHHLK [_IGAEVY(Nitro (Y))HHLK_]: the collision cross section runs as follows: under setting [4], 375.15 ± 0.55 Å²; under setting [13], 440.09 ± 1.8 Å².
In the case of IGAEVYHHLK [_IGAEVY(Phospho (Y))HHLK_], under setting [5], the collision cross section stood at 385.73 ± 0.77 Å².
Sequence IGNSYFKEEK [_IGNSYFK(Acetyl (K))EEK_] gave a collision cross section under setting [6] of 372.71 ± 0.4 Å².
Where the note is “charge state: 2, modification: Biotin”, IGNSYFKEEK [_IGNSYFK(Biotin)EEK_] registered a collision cross section of 398.98 Å².
Sequence IGNSYFKEEK [_IGNSYFK(Butyryl)EEK_] showed a collision cross section under setting [8] of 377.97 ± 0.72 Å².
For IGNSYFKEEK [_IGNSYFK(Crotonyl)EEK_], the collision cross section (charge state: 2, modification: Crotonyl) came to 378.81 ± 0.89 Å².
IGNSYFKEEK [_IGNSYFK(Dimethyl (K))EEK_]: the collision cross section runs as follows: (charge state: 2, modification: Dimethyl (K)) 384.15 ± 0.26 Å²; under setting [16], 447.26 ± 3 Å².
Under “charge state: 2, modification: Formyl”, IGNSYFKEEK [_IGNSYFK(Formyl)EEK_] registered a collision cross section of 368.62 ± 0.55 Å².
Under setting [17], “IGNSYFKEEK [_IGNSYFK(Gluratylation)EEK_]” yielded a collision cross section of 381.23 ± 0.61 Å².
The sequence IGNSYFKEEK [_IGNSYFK(GlyGly (K))EEK_] returned a collision cross section under setting [18] of 386.48 ± 0.54 Å² and a collision cross section under setting [9] of 442.05 ± 1.6 Å².
On to IGNSYFKEEK [_IGNSYFK(Malonyl)EEK_], for which the collision cross section (charge state: 2, modification: Malonyl) came to 378.34 Å².
For the sequence IGNSYFKEEK [_IGNSYFK(Methyl (K))EEK_], the collision cross section reads like this: under setting [10], 373.94 ± 0.87 Å²; under setting [11], 450.33 ± 4.8 Å².
IGNSYFKEEK [_IGNSYFK(Propionyl)EEK_] registered a collision cross section (charge state: 2, modification: Propionyl) of 375.51 ± 0.65 Å².
Regarding IGNSYFKEEK [_IGNSYFK(Succinyl)EEK_], under setting [12], the collision cross section was found to be 382.2 ± 0.76 Å².
Regarding “IGNSYFKEEK [_IGNSYFK(Trimethyl (K))EEK_]”, the collision cross section is reported as 378.87 ± 0.63 Å² (charge state: 2, modification: Trimethyl (K)) and 441.97 ± 1.8 Å² under setting [19].
With “IGNSYFKEEK [_IGNSYFK(hydroxyisobutyryl)EEK_]”, the collision cross section (charge state: 2, modification: hydroxyisobutyryl) came to 380.01 ± 0.8 Å².
As for “IGSLDNITHVPGGGNK [_IGS(HexNAc (ST))LDNITHVPGGGNK_]”, the collision cross section under setting [20] amounted to 493.45 ± 0.96 Å².
As for “IHNAENIQPGEQKYEYK [_IHNAENIQPGEQK(Acetyl (K))YEYK_]”, the collision cross section is on record as 481.31 Å² under setting [6] and 525.52 ± 2.1 Å² under setting [7].
